{"source": "patent US6825001B2", "about": "“DNA molecules and protein displaying improved triazine compound degrading ability” (Regents of the University of Minnesota, priority 1997, dated 2004)", "molecules": {"B1": {"name": "A40: AtzA homolog, nucleic acid SEQ ID NO:17, amino acid SEQ ID NO:22 (protein)", "chain": "MQTLSIQHGTLVTMDQYRRVLGDSWVHVQDGRIVALGVHAKSVPPPADRVIDARGKVVLPGFINAHTHVNQILLRGGPSHGRQFYDWLFNVVYPGQKAMRPEDVAVAVRLYCAEAVRSGITTINENADSAIYPGNIEAAMAVYGEVGVRVVYARMFFDRMDGRIQGYVDALKARSPQVELCSIMEETAVAKDRITALSDQYHGTAGGRISVWPAPATTTAVTVEGMRWAQAFARDRAVMWTLHMAESDHDGRIHGMSPAEYMECYGLLDERLQVAHCVYFDRKDVRLLHRHNVKVASQVVSNAYLGSGVAPVPEMVERGMAVGIGTDNGNSNDSVNMIGDMKFMAHIHRAVHRDADVLTPEKILEMATIDGARSLGMDHEIGSIETGKRADLILLDLRHPQTTPHHHLAATIVFQAYGNEVDTVLIDGNVVMENRCLSFLPPERELAFLEGAQSRATAILQRANMVANPAWRSLEMTPLLHPPPLEEIAAILARLG"}, "B2": {"name": "A46: AtzA homolog, nucleic acid SEQ ID NO:20, amino acid SEQ ID NO:25 (protein)", "chain": "B1 chain with K41E, R49Q, Y85H, C436R, G451E"}, "B3": {"name": "A60: AtzA homolog, nucleic acid SEQ ID NO:21, amino acid SEQ ID NO:26 (protein)", "chain": "B1 chain with K41E, G162R, G251E, V285I, V299A, C436R, G451E, R494Q"}, "B4": {"name": "A44: AtzA homolog, nucleic acid SEQ ID NO:19, amino acid SEQ ID NO:24 (protein)", "chain": "B1 chain with K41E, G251E, C436R, G451E, P483L"}, "B5": {"name": "A42: AtzA homolog, nucleic acid SEQ ID NO:18, amino acid SEQ ID NO:23 (protein)", "chain": "B1 chain with K41E, G251E, Y265H, V322M, C436R, G451E"}, "B6": {"name": "A7: AtzA homolog, gene SEQ ID NO:3, protein SEQ ID NO:5 (protein)", "chain": "ASMVTLTPLFSFSLLNCTRKASRSVMSASSWLVTCGMTTQLRCRFFDGIISALRRVTHYWRHIMQTLSIQHGTLVTMDQYRRVLGDSWVHVQDGRIVALGVHAESVPPPADRVIDARGKVVLPGFINAHTHVNQILLRGGPSHGRQFYDWLFNVVYPGQKAMRPEDVAVAVRLYCAEAVRSGITTINENADSAIYPGNIEAAMAVYGEVGVRVVYARMFFDRMDGRIQGYVDALKARSPQVELCSIMEGTAVAKDRITALSDQYHGTAGGRISVWPAPATTTAVTVEGMRWAQAFARDRAVMWTLHMAESDHDERIHGMSPAEYMECYGLLDERLQVAHCVYFDRKDVRLLHRHNVKVASQVVSNAYLGSGVAPVPEMVERGMAVGIGTDNGNSNDSVNMIGDMKFMAHIHRAVHRDADVLTPEKILEMATIDGARSLGMDHEIGSIETGKRADLILLDLRHPQTTPHHHLAATIVFQAYGNEVDTVLIDGNVVMENRRLSFLPPERELAFLEEAQSRATAILQRANMVANPAWRSLEMTPLLHPPPLEEIAAILARLGLGGGHDLDGYRIAMNAALPSFARVESLVGEGRLRAPASRRSE"}, "B7": {"name": "T7: AtzA homolog, gene SEQ ID NO:4, protein SEQ ID NO:6 (protein)", "chain": "SAATAALIMKASMVTLTPLFSFSLLNCTRKASRSVMSASSWLVTCGMTTQLRCRFFDGVISALRRVTHYWRHIMQTLSIQHGTLVTMDQYRRVLGDSWVHVQDGRIVALGVHAESVPPPADRVIDARGKVVLPGFINAHTHVNQILLRGGPSHGRQFYDWLFNVVYPGQKAMRPEDVAVAVRLYCAEAVRSGITTINENADSAIYPGNIEAAMAVYGEVGVRVVYARMFFDRMDGRIQGYVDALKARSPQVELCSIMEETAVAKDRITALSDQYHGTAGGRISVWPAPATTTAVTVEGMRWAQAFARDRAVMWTLHMAESDHDERIHGMSPADYMECYGLLDERLQVAHCVYFDRKDVRLLHRHNVKVASQVVSNAYLGSGVAPVPEMVERGMAVGIGTDNGNSNDSVNMIGDMKFMAHIHRAVHRDADVLTPEKILEMATIDGARSLGMDHEIGSIETGKRADLILLDLRHPQTTPHHHLAATIVFQAYGNEVDTVLIDGNVVMENRRLSFLPPERELAFLEEAQSRATAILQRANMVANPAWRSLEMTPLLHPPPLEEIAAILARLGLGGGHDLDGYRIAMNAALPSFARVESLVGEGRLRAPASRRSERPE"}}, "key": {"wild-type AtzA protein": {"target": "T1, wild-type AtzA protein (Pseudomonas sp., UniProt P72156)", "T1 construct": "made in house; host or cells: E. coli", "T1 sequence (P72156 whole entry)": "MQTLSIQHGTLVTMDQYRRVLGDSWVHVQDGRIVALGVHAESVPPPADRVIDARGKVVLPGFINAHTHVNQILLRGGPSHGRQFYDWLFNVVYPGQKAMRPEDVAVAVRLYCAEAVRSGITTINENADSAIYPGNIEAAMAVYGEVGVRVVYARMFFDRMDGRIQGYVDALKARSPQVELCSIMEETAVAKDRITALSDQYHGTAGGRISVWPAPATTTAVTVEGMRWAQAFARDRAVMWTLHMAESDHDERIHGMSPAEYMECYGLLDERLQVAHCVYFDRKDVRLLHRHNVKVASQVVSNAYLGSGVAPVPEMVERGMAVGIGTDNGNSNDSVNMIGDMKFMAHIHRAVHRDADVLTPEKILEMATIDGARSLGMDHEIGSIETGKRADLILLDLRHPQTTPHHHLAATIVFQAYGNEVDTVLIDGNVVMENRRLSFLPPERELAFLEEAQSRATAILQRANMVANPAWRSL", "assay": "substrate range of wild-type AtzA protein", "type": "biochemical, Pseudomonas sp. strain ADP", "excerpt": "Enzyme Kinetics. […] HPLC analysis was done as described above."}, "[1]": {"test_system": "Pseudomonas species strain ADP", "assay": "effect of ammonium chloride on atrazine clearing on solid media, Pseudomonas", "type": "cell-based", "details": "solid media with 500 ppm atrazine, 2 weeks, 28° C. or 37° C.", "excerpt": "(§1) Therefore, it was not necessary to use media free of exogenous ammonia in the screening assays."}, "[2]": {"test_system": "E. coli DH5α (pMD1 or pMD2)", "assay": "effect of ammonium chloride on atrazine degradation, E. coli clones", "type": "cell-based", "excerpt": "as §1"}, "[3]": {"assay": "atrazine-degrading activity of AtzA homologs compared with wild type", "details": "compared with wild-type AtzA or parent homolog", "method": "Serial dilutions of the transformation reaction were plated onto LB plates containing 50 μg/ml ampicillin, the remainder of the transformation was stored in 25% glycerol and frozen at −80° C.\nEnviron. Microbiol., 61, 1451-1457 (1995), at a final concentration of 500 μg/ml to produce an opaque suspension of small particles in the clear agar. […] Positive colonies that most rapidly formed the largest clear zones were selected initially for further analysis. The (approximately) 40 best colonies were picked, pooled, grown in the presence of 50 μg/ml ampicillin and plasmid prepared from them.\nEnzyme Kinetics. […] The reactions were stopped by boiling the reaction tubes at specific times, the addition of 500 μl acetonitrile and rapid freezing at −80° C. Thawed samples were centrifuged at 14,000 rpm for 10 minutes, the supernatants were filtered through a […] filter, and placed into crimp-seal HPLC vials. HPLC analysis was done as described above."}, "[4]": {"assay": "TERBUTHYLAZINE-degrading activity of AtzA homologs", "type": "biochemical", "details": "compared with wild-type enzyme", "method": "TERBUTHYLAZINE was incorporated in solid LB medium at a final concentration of about 400-500 μg/ml to produce an opaque suspension of sample particles in the clear agar. […] HPLC analysis was performed with a Hewlett Packard HP 1090 Liquid Chromatograph system equipped with a photodiode array detector and interfaced to an HP 79994A Chemstation. TERBUTHYLAZINE and its metabolites were resolved by using an analytical C^18 reverse-phase Nova-Pak HPLC column (4 μm-diameter spherical packing, 150 by 3.9 mm; Waters Chromatography, Milford, Mass.) and an acetonitrile (ACN) gradient, in water, at a flow rate of 1.0 ml min^−1. Linear gradients of 0 to 6 min, 10 to 25% ACN; 6 to 21 min, 25 to 65% ACN; 21 to 23 min, 65 to 100% ACN; and 23 to 25 min, 100% ACN were used. Spectral data of the column eluent were acquired between 200 and 400 nm (12-nm bandwidth per channel) at a sampling frequency of 640 ms. Spectra were referenced against a signal of 500 nm.\nSample 1 is a control sample without enzyme. […] Sample 3 employed the T7 homolog (SEQ ID NO:6) and Sample 4 employed the A7 homolog (SEQ ID NO:5). Results were determined by HPLC as described above. FIG. 8(a) provides the percentage of TERBUTHYLAZINE remaining after a 15 minute exposure to homologs A7, A11, and T7. Samples 1-10 refer to the effect of homolog activity in the presence of 50 uM of: Manganese (1); Mangnesium (2), EDTA (3); cobalt (4); zinc (5); iron (6); copper (7); nickel (8); no metal (9); or no eznyme (10). FIG. 8(b) provides the relative amount of hydroxyterbuthylazine as a measure of TERBUTHYLAZINE degradation for homologs A7 (solid bar), A11 (hatched bar), or T7 (open bar) in the presence or absence of additives 1-10 (supra)."}}, "note": "Residue numbers refer to the chain shown, from its start. Entries after “also recorded” stand apart in the source; their conditions may differ."}
{"molecule": "Nc1nc(N)nc(Cl)n1", "note": "[Desethyldesisopropylatrazine, 2-chloro-4,6-diamino-s-triazine]", "values": [{"measurement": "degradation of substrate by wild-type AtzA protein (in words)", "setting": "wild-type AtzA protein", "value": "did not degrade"}]}
{"molecule": "CCNc1nc(N)nc(Cl)n1", "note": "[Desisopropylatrazine, 2-chloro-4-ethylamino-6-amino-s-triazine]", "values": [{"measurement": "degradation of substrate by wild-type AtzA protein (in words)", "setting": "wild-type AtzA protein", "value": "acts on"}]}
{"molecule": "Nc1nc(N)nc(N)n1", "note": "[MELAMINE, 2,4,6-triamino-s-triazine]", "values": [{"measurement": "degradation of substrate by wild-type AtzA protein (in words)", "setting": "wild-type AtzA protein", "value": "did not degrade"}]}
{"molecule": "CCNc1nc(Cl)nc(NCC)n1", "note": "[SIMAZINE, 2-chloro-4,6-diethylamino-s-triazine]", "values": [{"measurement": "degradation of substrate by wild-type AtzA protein (in words)", "setting": "wild-type AtzA protein", "value": "acts on"}]}
{"molecule": "CCNc1nc(Cl)nc(NC(C)(C)C)n1", "note": "[TERBUTHYLAZINE, 2-chloro-4-(ethylamino)-6-(tertiarybutyl-amino)-1,3,5-triazine]", "values": [{"measurement": "degradation of substrate by wild-type AtzA protein (in words)", "setting": "wild-type AtzA protein", "value": "only poorly degraded"}]}
{"molecule": "Cl.N", "note": "[ammonium chloride]", "values": [{"measurement": "ammonium chloride concentration sufficient to inhibit visible clearing", "setting": "[1]", "value": "0.6 to 1.2", "unit": "mM"}, {"measurement": "ammonium chloride tolerance relative to wild type", "setting": "[2]; E. coli clones vs Pseudomonas strain ADP", "value": "40-80 fold"}, {"measurement": "effect of inorganic nitrogen source on atrazine degradation (in words)", "setting": "[2]; atzA fragments expressed in E. coli", "value": "unaffected"}, {"measurement": "ammonium chloride concentration at which atrazine degradation was still observed", "setting": "[2]; solid media with atrazine", "value": "≤ 48", "unit": "mM"}]}
{"molecule": "CCNc1nc(Cl)nc(NC(C)C)n1", "note": "[atrazine, 2-chloro-4-(ethylamino)-6-(isopropylamino)-1,3,5-triazine]", "values": [{"measurement": "degradation of substrate by wild-type AtzA protein (in words)", "setting": "wild-type AtzA protein", "value": "acts on"}]}
{"molecule": "CC(C)Nc1nc(N)nc(Cl)n1", "note": "[desethylatrazine, 2-chloro-4-amino-6-isopropylamino-s-triazine]", "values": [{"measurement": "degradation of substrate by wild-type AtzA protein (in words)", "setting": "wild-type AtzA protein", "value": "acts on"}]}
{"molecule": "B1", "values": [{"measurement": "atrazine degradation activity (in words)", "setting": "[3]", "value": "improved rate of catalytic activity"}]}
{"molecule": "B2", "values": [{"measurement": "atrazine degradation activity (in words)", "setting": "[3]", "value": "improved rate of catalytic activity"}, {"measurement": "TERBUTHYLAZINE degradation activity (in words)", "setting": "[4]", "value": "capable of better degrading"}]}
{"molecule": "B3", "values": [{"measurement": "atrazine degradation activity (in words)", "setting": "[3]", "value": "improved rate of catalytic activity"}, {"measurement": "TERBUTHYLAZINE degradation activity (in words)", "setting": "[4]", "value": "capable of better degrading"}]}
{"molecule": "B4", "values": [{"measurement": "atrazine degradation activity (in words)", "setting": "[3]", "value": "improved rate of catalytic activity"}, {"measurement": "TERBUTHYLAZINE degradation activity (in words)", "setting": "[4]", "value": "capable of better degrading"}]}
{"molecule": "B5", "values": [{"measurement": "atrazine degradation activity (in words)", "setting": "[3]", "value": "improved rate of catalytic activity"}, {"measurement": "TERBUTHYLAZINE degradation activity (in words)", "setting": "[4]", "value": "capable of better degrading"}]}
{"molecule": "B6", "values": [{"measurement": "atrazine degradation activity (in words)", "setting": "[3]", "value": "enhanced atrazine degradation activity"}, {"measurement": "TERBUTHYLAZINE degradation activity (in words)", "setting": "[4]", "value": "better than the wild-type enzyme; also recorded: enhanced TERBUTHYLAZINE degradation activity"}]}
{"molecule": "B7", "values": [{"measurement": "atrazine degradation activity (in words)", "setting": "[3]", "value": "enhanced atrazine degradation activity"}, {"measurement": "TERBUTHYLAZINE degradation activity (in words)", "setting": "[4]", "value": "better than the wild-type enzyme; also recorded: enhanced TERBUTHYLAZINE degradation activity"}]}
